Laboratory results reported in patent US20190076445A1 (UNIVERSITY OF CINCINNATI, published 2019).

T1: human FcϵRIα (human, UniProt P12319 26-257)
T1 construct: whole, on cells; also called huFcϵRIα
T1 sequence (looked up): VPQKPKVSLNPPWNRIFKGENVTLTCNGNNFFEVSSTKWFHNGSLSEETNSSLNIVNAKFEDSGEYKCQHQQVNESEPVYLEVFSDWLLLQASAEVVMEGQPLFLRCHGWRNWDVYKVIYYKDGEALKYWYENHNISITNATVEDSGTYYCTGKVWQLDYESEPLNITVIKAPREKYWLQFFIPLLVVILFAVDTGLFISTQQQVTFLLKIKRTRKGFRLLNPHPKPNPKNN

B1: IE7 (antibody, mouse IgG1, V domains shown)
VH: QVQLQESGGDVVKPGGSLKLSCAASGFTFSFYGMSWVRQTPDKKLEWVATISGGGNYTYYPDSVKGRFTISRDNAMNTLYLQMNSLKSEDTAMYYCVRAYYGNWNSYWGQGTLVTVS
VL: DIVMTQTPSSMYASLGERVTITCKASQDINNYLSWFQQKPGRSPKTLIYRANRLMDGVPSRIRGSGSGQDYSLTISSLEYEDMGIYYCLLYNEFPWMFGGGTKLEIKR
notes: Mouse IgG1 mAb from a hybridoma (ATCC PTA-125115); also called anti-FcϵRIα monoclonal antibody IE7; anti-huFcϵRIα mAb
B2: IB10 (antibody, V domains shown)
VH: QVQLQQPGAELVRPGASVKLSCKASGYSFTSYWMNWVNQRPGQGLEWIGMIHPSDSETRLNPNFKDRATLTVDKSSSTAYMQLSSPTSEDSAVYYCARGSLYDGYLFLYWGQGTLVTVSA
VL: DIVMTQSPLSLPVSLGDQASISCRSSQSILHSNGDTYLEWYLQKPGQSPKLLIYKVSNRFSGVPDRFSGSGSGTDFTLKISRVEAEDLGVYYCFQGSYVPFTFGSGTKLEIKR
notes: mAb from a hybridoma (ATCC PTA-125116); also called anti-FcϵRIα monoclonal antibody IB10; anti-huFcϵRIα mAb

Target: T1, human FcϵRIα
Assay: summary of Examples 1-7 (huFcϵRIα mice, peritoneal mast cells, flow cytometry)

Binder	binding result
B1	binds
B2	binds
